B1: F-box only protein 4 (Homo sapiens), Q9UKT5 (parent)
chain: MAGSEPRSGTNSPPPPFSDWGRLEAAILSGWKTFWQSVSKERVARTTSREEVDEAASTLTRLPIDVQLYILSFLSPHDLCQLGSTNHYWNETVRDPILWRYFLLRDLPSWSSVDWKSLPDLEILKKPISEVTDGAFFDYMAVYRMCCPYTRRASKSSRPMYGAVTSFLHSLIIQNEPRFAMFGPGLEELNTSLVLSLMSSEELCPTAGLPQRQIDGIGSGVNFQLNNQHKFNILILYSTTRKERDRAREEHTSAVNKMFSRHNEGDDQQGSRYSVIPQIQKVCEVVDGFIYVANAEAHKRHEWQDEFSHIMAMTDPAFGSSGRPLLVLSCISQGDVKRMPCFYLAHELHLNLLNHPWLVQDTEAETLTGFLNGIEWILEEVESKRAR
B2: 14-3-3 protein epsilon (Rattus norvegicus (Rat)), P62260 (parent)
chain: MDDREDLVYQAKLAEQAERYDEMVESMKKVAGMDVELTVEERNLLSVAYKNVIGARRASWRIISSIEQKEENKGGEDKLKMIREYRQMVETELKLICCDILDVLDKHLIPAANTGESKVFYYKMKGDYHRYLAEFATGNDRKEAAENSLVAYKAASDIAMTELPPTHPIRLGLALNFSVFYYEILNSPDRACRLAKAAFDDAIAELDTLSEESYKDSTLIMQLLRDNLTLWTSDMQGDGEEQNKEALQDVEDENQ

Tests used:
[1] = variants of: B1; details: with 1433e_mouse Ywhae
[2] = variants of: B1; details: with 1433e_human YWHAE
1433e_rat Ywhae, P62260 = variants of: B1; details: with 1433e_rat Ywhae, P62260
[3] = variants of: B1; details: with 1433e_human YWHAE; remark: listed apart in the source
fbx4_human FBXO4, Q9UKT5 = variants of: B2; details: with fbx4_human FBXO4, Q9UKT5

Row | effect of a mutation on the interaction [1] | effect of a mutation on the interaction [2] | effect of a mutation on the interaction (1433e_rat Ywhae, P62260) | effect of a mutation on the interaction [3] | effect of a mutation on the interaction (fbx4_human FBXO4, Q9UKT5) | Variant
1 | disrupting interaction | disrupting interaction | decreasing interaction | – | – | MAGSEPRSGTNAPPPPFSDWGRLEAAILSGWKTFWQSVSKERVARTTSREEVDEAASTLTRLPIDVQLYILSFLSPHDLCQLGSTNHYWNETVRDPILWRYFLLRDLPSWSSVDWKSLPDLEILKKPISEVTDGAFFDYMAVYRMCCPYTRRASKSSRPMYGAVTSFLHSLIIQNEPRFAMFGPGLEELNTSLVLSLMSSEELCPTAGLPQRQIDGIGSGVNFQLNNQHKFNILILYSTTRKERDRAREEHTSAVNKMFSRHNEGDDQQGSRYSVIPQIQKVCEVVDGFIYVANAEAHKRHEWQDEFSHIMAMTDPAFGSSGRPLLVLSCISQGDVKRMPCFYLAHELHLNLLNHPWLVQDTEAETLTGFLNGIEWILEEVESKRAR [S12A]
2 | disrupting interaction | disrupting interaction | decreasing interaction | decreasing interaction | – | MAGSEPRRGTNSPPPPFSDWGRLEAAILSGWKTFWQSVSKERVARTTSREEVDEAASTLTRLPIDVQLYILSFLSPHDLCQLGSTNHYWNETVRDPILWRYFLLRDLPSWSSVDWKSLPDLEILKKPISEVTDGAFFDYMAVYRMCCPYTRRASKSSRPMYGAVTSFLHSLIIQNEPRFAMFGPGLEELNTSLVLSLMSSEELCPTAGLPQRQIDGIGSGVNFQLNNQHKFNILILYSTTRKERDRAREEHTSAVNKMFSRHNEGDDQQGSRYSVIPQIQKVCEVVDGFIYVANAEAHKRHEWQDEFSHIMAMTDPAFGSSGRPLLVLSCISQGDVKRMPCFYLAHELHLNLLNHPWLVQDTEAETLTGFLNGIEWILEEVESKRAR [S8R]
3 | – | – | – | – | disrupting interaction | MDDREDLVYQAKLAEQAERYDEMVESMKKVAGMDVELTVEERNLLSVAYENVIGARRASWRIISSIEQKEENKGGEDKLKMIREYRQMVETELKLICCDILDVLDKHLIPAANTGESKVFYYKMKGDYHRYLAEFATGNDRKEAAENSLVAYKAASDIAMTELPPTHPIRLGLALNFSVFYYEILNSPDRACRLAKAAFDDAIAELDTLSEESYKDSTLIMQLLRDNLTLWTSDMQGDGEEQNKEALQDVEDENQ [K50E]
